Results on one molecule are retold here after doi:10.1101/2022.09.14.507982 (bioRxiv, 2022).

The target of the assay is F-actin (filamentous actin from rabbit muscle) (rabbit, UniProt P68135 1-377). The assay is described as follows: co-sedimentation.

Several values for one entry are separate records, joined by “and”; a condition that tells them apart may be missing. Equal values may be shown once.

B1: 90 kDa isoform of palladin (natural protein)
chain: MSALASRSAPAMQSSGSFNYARPKQFIAAQNLGPASGHGTPASSPSSSSLPSPMSPTPRQFGRAPVPPFAQPFGAEPEAPWGSSSPSPPPPPPPVFSPTAAFPVPDVFPLPPPPPPLPSPGQASHCSSPATRFGHSQTPAAFLSALLPSQPPPAAVNALGLPKGVTPAGFPKKASRTARIASDEEIQGTKDAVIQDLERKLRFKEDLLNNGQPRLTYEERMARRLLGADSATVFNIQEPEEETANQEYKVSSCEQRLISEIEYRLERSPVDESGDEVQYGDVPVENGMAPFFEMKLKHYKIFEGMPVTFTCRVAGNPKPKIYWFKDGKQISPKSDHYTIQRDLDGTCSLHTTASTLDDDGNYTIMAANPQGRISCTGRLMVQAVNQRGRSPRSPSGHPHVRRPRSRSRDSGDENEPIQERFFRPHFLQAPGDLTVQEGKLCRMDCKVSGLPTPDLSWQLDGKPVRPDSAHKMLVRENGVHSLIIEPVTSRDAGIYTCIATNRAGQNSFSLELVVAAKEAHKPPVFIEKLQNTGVADGYPVRLECRVLGVPPPQIFWKKENESLTHSTDRVSMHQDNHGYICLLIQGATKEDAGWYTVSAKNEAGIVSCTARLDVYTQWHQQSQSTKPKKVRPSASRYAALSDQGLDIKAAFQPEANPSHLTLNTALVESEDL
What is called Kd is the constant that tells how readily two partners part at equilibrium. A low value points to higher affinity. For the molecule B1, the Kd is 2110 nM and 3100 nM.
